Series [1] deals with native firefly luciferase (Photinus pyralis, UniProt P08659). Conditions: cited from earlier work.
Series [2] relates to LucPpe2m90. The series is classed as biochemical, Photuris pennsylvanica. Conditions: for Half life: buffer; for Average rlu: 37° C. The method, then: (§1) The stability of a reagent composition composition comprising LucPpe2 luciferase was compared to a reagent composition comprising LucPpe2m90 and a reagent composition comprising LucPpe2m146, in the presence and absence of 0.1% DTAB. These mutant luciferases are thermostable; they are described in detail in PCT application PCT/US99/30925, filed Dec. 22, 1999.
(§2) Each enzyme was diluted to 0.05 mg/ml to a final volume of 1.0 ml in either 25 mM HEPES, pH 8.0 or 20 mM citrate, pH 6.0; both with 100 mM NaCl, 1 mM EDTA, 0.1% gelatin and 5% glycerol. In half of the samples, 0.1% DTAB was added. The enzyme solutions (“reagent compositions”) were incubated at 37° C.
(§3) At various timepoints, 10 μl of enzyme solution was transferred to a 96-well luminometer plate in triplicate. Then, in triplicate, 100 μl room temperature luciferase assay reagent (1 mM luciferin, 0.2 mM ATP, 10 MM MgSO4 in 50 mM HEPES, pH 8.0) was added to each 10 μl enzyme solution aliquot, mixed and immediately read in a Dynex MLX microtiter plate luminometer. The ATP in the luciferase assay reagent is at a saturating concentration. The average rlu values are reported, as are the half lives of the reagent composition activity as measured by luminescence (Table P). Half-life was calculated using the formula log (0.5)/slope of the data plotted as time (x axis) versus log value of rlu. The time zero is actually about 2-3 minutes after the mixing of enzyme and substrate; this could account for the lower numbers in the presence of DTAB at time 0 than in the absence of DTAB.

Series [3] has as its system LucPpe2m146. The series is classed as biochemical, Photuris pennsylvanica. Conditions: for Half life: buffer; for Average rlu: 37° C. The method, then: as §1, §2, §3

Results on 4 molecules are retold here after patent US20030104507A1, “Method for detection of ATP” (priority 2001, published 2003).

Like-named read-outs stand apart in the source and are kept apart here.

native firefly luciferase, sequence (P08659 whole entry): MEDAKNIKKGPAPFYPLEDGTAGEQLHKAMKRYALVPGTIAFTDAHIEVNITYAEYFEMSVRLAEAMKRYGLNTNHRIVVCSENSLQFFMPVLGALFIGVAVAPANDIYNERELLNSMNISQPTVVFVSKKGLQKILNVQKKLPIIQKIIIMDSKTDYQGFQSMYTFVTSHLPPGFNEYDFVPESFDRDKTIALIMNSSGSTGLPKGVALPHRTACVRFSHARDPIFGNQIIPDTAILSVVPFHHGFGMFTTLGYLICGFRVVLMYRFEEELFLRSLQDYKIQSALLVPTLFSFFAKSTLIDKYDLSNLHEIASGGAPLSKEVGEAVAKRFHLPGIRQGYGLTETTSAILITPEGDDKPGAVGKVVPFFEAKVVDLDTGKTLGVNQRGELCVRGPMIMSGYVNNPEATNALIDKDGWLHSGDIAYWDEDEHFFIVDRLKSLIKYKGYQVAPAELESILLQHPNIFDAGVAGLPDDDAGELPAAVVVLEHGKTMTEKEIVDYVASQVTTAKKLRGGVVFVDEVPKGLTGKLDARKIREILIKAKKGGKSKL

In the case of `Cc1cc(C(C)(C)CC(C)(C)C)ccc1OCCOCC[N+](C)(C)Cc1ccccc1.[Cl-]` [methylbenzethonium chloride], the “effect on native firefly luciferase” value in series [1] is “inactivated”.
On to benzalkonium chloride, for which, in series [1], the “effect on native firefly luciferase” value is reported as “inactivated”.

B1: LucPpe2m90: mutant luciferase derived from LucPpe2, SEQ ID NO:2 (protein)
chain: MADKNILYGPEPFYPLEDGTAGEQMFDALSRYADIPGCIALTNAHTKENVLYEEFLKLSCRLAESFKKYGLKQNDTIAVCSENGLQFFLPVIASLYLGIIVAPVNDKYIERELIHSLGIVKPRIVFCSKNTFQKVLNVKSKLKSIETIIILDLNEDLGGYQCLNNFISQNSDSNLDVKKFKPYSFNRDDQVALIMFSSGTTGLPKGVMLTHKNIVARFSLAKDPTFGNAINPTTAILTVIPFHHGFGMMTTLGYFTCGFRVVLMHTFEEKLFLQSLQDYKVESTLLVPTLMAFLAKSALVEKYDLSHLKEIASGGAPLSKEIGEMVKKRFKLNFVRQGYGLTETTSAVLITPKGDAKPGSTGKIVPFHAVKVVDPTTGKILGPNEPGELYFKGPMIMKGYYNNEEATKAIIDNDGWLRSGDIAYYDNDGHFYIVDRLKSLIKYKGYQVAPAEIEGILLQHPYIVDAGVTGIPDEAAGELPAAGVVVQTGKYLNEQIVQDYVASQVSTAKWLRGGVKFLDEIPKGSTGKIDRKVLRQMFEKHTNG
modifications: Mutant of LucPpe2 luciferase
Regarding B1, the “Half life” value stood at 8.508 h in series [2] (pH 6) and 8.125 h in series [2] (pH 8). The Average rlu in series [2] (pH 6.0 + 0.1% DTAB, 0 min) is reported as 16263.53 rlu; in series [2] (pH 6.0 + 0.1% DTAB, 59 min), 15535.4 rlu; in series [2] (pH 6.0 + 0.1% DTAB, 123 min) it was 13421.5 rlu; in series [2] (pH 6.0 + 0.1% DTAB, 183 min), 14061.8 rlu; in series [2] (pH 6.0 + 0.1% DTAB, 239 min), 11924.03 rlu; in series [2] (pH 6.0, 0 min) it was 20031.03 rlu. Also, the Average rlu worked out at 18453 rlu in series [2] (pH 6.0, 59 min); 15966.03 rlu in series [2] (pH 6.0, 123 min); 15546.4 rlu in series [2] (pH 6.0, 183 min); 14519.63 rlu in series [2] (pH 6.0, 239 min); 22401.4 rlu in series [2] (pH 8.0 + 0.1% DTAB, 0 min); 15332.67 rlu in series [2] (pH 8.0 + 0.1% DTAB, 59 min). Further, the Average rlu in series [2] (pH 8.0 + 0.1% DTAB, 123 min) is given as 12383.75 rlu; in series [2] (pH 8.0 + 0.1% DTAB, 183 min), 11271.25 rlu; in series [2] (pH 8.0 + 0.1% DTAB, 239 min), 9551.65 rlu; in series [2] (pH 8.0, 0 min), 15795.17 rlu; in series [2] (pH 8.0, 59 min) it was 15510.77 rlu; in series [2] (pH 8.0, 123 min) it was 13735.67 rlu. The Average rlu in series [2] (pH 8.0, 183 min) was 13271.05 rlu; in series [2] (pH 8.0, 239 min), 11115.13 rlu.

B2: LucPpe2m146: mutant luciferase derived from LucPpe2, SEQ ID NO:4 (protein)
chain: MADKNILYGPEPFYPLEDGTAGEQMFDALSRYAAIPGCIALTNAHTKENVLYEEFLKLSCRLAESFKKYGLKQNDTIAVCSENSLQFFLPVIASLYLGIIVAPVNDKYIERELIHSLGIVKPRIVFCSKNTFQKVLNVKSKLKSIETIIILDLNEDLGGYQCLNNFISQNSDSNLDVKKFKPYSFNRDDQVASIMFSSGTTGLPKGVMLTHKNIVARFSIAKDPTFGNAINPTSAILTVIPFHHGFGMMTTLGYFTCGFRVVLMHTFEEKLFLQSLQDYKVESTLLVPTLMAFLAKSALVEKYDLSHLKEIASGGAPLSKEIGEMVKKRFKLNFVRQGYGLTETTSAVLITPKGDAKPGSTGKIVPLHAVKVVDPTTGKILGPNEPGELYFKGPMIMKGYYNNEEATKAIIDNDGWLRSGDIAYYDNDGHFYIVDRLKSLIKYKGYQVAPAEIEGILLQHPYIVDAGVTGIPDEAAGELPAAGVVVQTGKYLNEQIVQDYVASQVSTAKWLRGGVKFLDEIPKGSTGKIDRKVLRQMLEKHTNG
modifications: Mutant of LucPpe2 luciferase
As to B2, the results for the “Half life” value in series [3] (pH 6) and in series [3] (pH 8) were 13.68 h and 9.925 h, respectively. For the same molecule, the Average rlu in series [3] (pH 6.0 + 0.1% DTAB, 0 min) came to 5945.34 rlu; in series [3] (pH 6.0 + 0.1% DTAB, 61 min), 5989.65 rlu; in series [3] (pH 6.0 + 0.1% DTAB, 125 min), 3754.71 rlu; in series [3] (pH 6.0 + 0.1% DTAB, 183 min) it was 4839.58 rlu; in series [3] (pH 6.0 + 0.1% DTAB, 237 min), 4951.0 rlu; in series [3] (pH 6.0, 0 min), 7685.01 rlu. Further, the Average rlu in series [3] (pH 6.0, 61 min) was 7077.29 rlu; in series [3] (pH 6.0, 125 min) it was 5507.01 rlu; in series [3] (pH 6.0, 183 min) it was 6144.94 rlu; in series [3] (pH 6.0, 237 min) it was 6471.76 rlu; in series [3] (pH 8.0 + 0.1% DTAB, 0 min), 6445.57 rlu; in series [3] (pH 8.0 + 0.1% DTAB, 61 min), 6214.56 rlu. Moreover, the Average rlu in series [3] (pH 8.0 + 0.1% DTAB, 125 min) amounted to 4018.92 rlu; in series [3] (pH 8.0 + 0.1% DTAB, 183 min) it was 4020.56 rlu; in series [3] (pH 8.0 + 0.1% DTAB, 237 min), 3734.59 rlu; in series [3] (pH 8.0, 0 min) it was 6652.84 rlu; in series [3] (pH 8.0, 61 min), 6577.91 rlu; in series [3] (pH 8.0, 125 min), 5192.73 rlu. In addition, the Average rlu in series [3] (pH 8.0, 183 min) stood at 5476.86 rlu; in series [3] (pH 8.0, 237 min), 5174.22 rlu.
